Data from article doi:10.1101/2022.11.09.515846 (bioRxiv, 2022).

Molecular target: T1, human Ndc80 loop segment (residues 370–509) with a cysteine added at each end (human, UniProt O14777 370-509)
T1 chain: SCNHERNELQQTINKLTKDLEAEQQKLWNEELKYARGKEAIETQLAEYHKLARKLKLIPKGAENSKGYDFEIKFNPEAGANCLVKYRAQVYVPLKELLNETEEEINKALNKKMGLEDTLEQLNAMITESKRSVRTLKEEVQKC
Experiment: crystal structure

B1: human Nuf2 segment (residues 252–347) with a cysteine added at each end (domain or fragment)
chain: CKNYKEKMKDTVQKLKNARQEVVEKYEIYGDSVDCLPSCQLEVQLYQKKIQDLSDNREKLASILKESLNLEDQIESDESELKKLKTEENSFKRLMIVC
- binding result: binds
